Results as given in US20020064869A1 (published 2002).

How the values were obtained:
[1] = biological target: Fas on TIL1200 cells (human) (UniProt P25445); experiment: cell-based or functional assay
[2] = biological target: T1, human LTβR-Fc fusion protein (extracellular domain of lymphotoxin-β receptor fused to IgG1 Fc) (human, UniProt P36941 31-227); experiment: BIAcore, LTβR-Fc immobilized, CHO conditioned media
T1 construct: extracellular domain; Made in baculovirus-infected Sf21 cells; also called sLTβR-Fc; lymphotoxin-β receptor-Fc fusion protein; not shown: IgG1 Fc from vector pUC19-IgG1-Fc; hybridomas were counter-screened on human IgG1
T1 sequence (P36941 31-227 limits assumed): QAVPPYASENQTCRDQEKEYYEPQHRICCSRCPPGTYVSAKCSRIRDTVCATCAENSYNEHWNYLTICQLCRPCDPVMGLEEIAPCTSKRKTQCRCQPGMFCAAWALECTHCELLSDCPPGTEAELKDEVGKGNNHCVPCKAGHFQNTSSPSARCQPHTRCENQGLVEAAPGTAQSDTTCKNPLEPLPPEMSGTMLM

[3] = biological target: LTβR on the surface of human cancer cells (MDA-MB-231, HT-29) (human, UniProt P36941 31-435); experiment: cell-based or functional assay
Sequence of LTβR on the surface of human cancer cells (MDA-MB-231, HT-29) (P36941 31-435): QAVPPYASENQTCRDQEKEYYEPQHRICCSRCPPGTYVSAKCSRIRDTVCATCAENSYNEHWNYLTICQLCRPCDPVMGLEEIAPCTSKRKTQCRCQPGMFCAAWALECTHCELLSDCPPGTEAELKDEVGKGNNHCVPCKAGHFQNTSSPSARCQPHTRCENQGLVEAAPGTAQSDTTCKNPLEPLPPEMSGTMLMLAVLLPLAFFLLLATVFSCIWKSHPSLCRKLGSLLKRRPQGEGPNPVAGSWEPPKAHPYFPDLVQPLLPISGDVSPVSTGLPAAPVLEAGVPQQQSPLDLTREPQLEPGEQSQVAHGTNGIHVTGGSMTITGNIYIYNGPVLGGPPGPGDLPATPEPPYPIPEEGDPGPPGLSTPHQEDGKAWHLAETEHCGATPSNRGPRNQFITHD

[4] = biological target: T2, TR2 on the surface of human cells (MDA-MB-231, HT-29, PBL T cells) (human, UniProt Q92956 39-283); experiment: cell-based or functional assay
T2 sequence (looked up): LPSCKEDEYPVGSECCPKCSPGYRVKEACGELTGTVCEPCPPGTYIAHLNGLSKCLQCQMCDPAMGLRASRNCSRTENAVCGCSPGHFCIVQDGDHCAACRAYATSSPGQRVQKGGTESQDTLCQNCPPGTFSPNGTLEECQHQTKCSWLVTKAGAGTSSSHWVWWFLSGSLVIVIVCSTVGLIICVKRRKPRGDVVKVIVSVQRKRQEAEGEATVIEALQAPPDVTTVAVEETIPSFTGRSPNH

Sequence of Fas on TIL1200 cells (human) (P25445 26-335): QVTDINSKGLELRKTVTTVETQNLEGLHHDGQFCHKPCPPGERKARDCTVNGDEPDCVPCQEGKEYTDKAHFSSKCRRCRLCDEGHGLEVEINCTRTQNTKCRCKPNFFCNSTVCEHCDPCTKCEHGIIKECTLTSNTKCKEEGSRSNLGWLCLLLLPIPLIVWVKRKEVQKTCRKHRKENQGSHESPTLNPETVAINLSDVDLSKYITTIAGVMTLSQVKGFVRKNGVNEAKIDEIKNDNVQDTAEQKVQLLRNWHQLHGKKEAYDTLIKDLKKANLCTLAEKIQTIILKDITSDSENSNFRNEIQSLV

Molecule: apoptosis inducing anti-Fas Mab CH-11 (antibody)
- apoptosis of TIL1200 cells [1]: 90%

B1: ck-beta8/AIM II fusion protein, extracellular region of AIM II (amino acids 60-240), from CHO 11 conditioned media (ligand)
chain: SQAGSQLHWRLGEMVTRLPDGPAGSWEQLIQERRSHEVNPAAHLTGANSSLTGSGGPLLWETQLGLAFLRGLSYHDGALVVTKAGYYYIYSKVQLGGVGCPLGLASTITHGLYKRTPRYPEELELLVSQQSPCGRATSSSRVWWDSSFLGGVVHLEAGEEVVVRVLDERLVRLRDGTRSYFGAFMV
notes: Two N-termini were found (40% each): SQAGS... and GSQLH; the second species lacks the first three residues SQA; also called CHO-11 AIM II; ck-beta-8-AIM2
- binding result [2]: binds

B2: recombinant soluble form of AIM II protein (sAIM II), Flag-tagged, amino acids 74-240 of AIM II (ligand, not shown: small tags and cut ends)
chain: DGPAGSWEQLIQERRSHEVNPAAHLTGANSSLTGSGGPLLWETQLGLAFLRGLSYHDGALVVTKAGYYYIYSKVQLGGVGCPLGLASTITHGLYKRTPRYPEELELLVSQQSPCGRATSSSRVWWDSSFLGGVVHLEAGEEVVVRVLDERLVRLRDGTRSYFGAFMV
- IC50 of cytotoxic effect on HT-29 cells in the presence of 10 u/ml IFNγ [3]: < 1 ng/mL
- IC50 of cytotoxic effect on HT-29 cells in the presence of 10 u/ml IFNγ [4]: < 1 ng/mL
